Test results from paper PMC9113939, “Snapshots of actin and tubulin folding inside the TRiC chaperonin” (Nature Structural & Molecular Biology, 2022).

How the values were obtained:
Details in all cases: both partners purified
[1] = target: T1, recombinant human CCT5 homo-oligomer (hexadecameric form, CCT5_(16)) (Homo sapiens (Human)., UniProt P48643, biotin (for BLI)); assay: BLI; Octet RED384, 25 °C, 20 mM HEPES pH 7.5, 150 mM NaCl, 0.1% BSA; biotinylated CCT5 on streptavidin sensors; Nb18 40 μM to 39 nM; steady-state fit
T1 construct: it mentions that recombinant CCT5 was earlier made with a C-terminal His-tag; also called recombinant CCT5; overexpressed CCT5; source: E. coli, recombinant; copies: 16

recombinant CCT4 = target: T2, recombinant CCT4 (Homo sapiens, UniProt P50991); assay: as above
T2 construct: CCT4 subunit of TRiC, expressed recombinantly; Construct not described

[2] = target: T3, endogenous human TCP-1 ring complex (TRiC), CCT5 tagged with 3×FLAG/Spytag (human, UniProt P17987;P78371;P49368;P50991;P48643;P40227;Q99832;P50990); assay: cryo-EM structure; purified TRiC (1.5 mg/ml) premixed with Nb18 at 1:1 molar ratio, 1 mM ATP, 5 mM MgCl2, AlFx; closed and open states
T3 construct: CCT1 subunit of human TRiC; CCT2 subunit of human TRiC; CCT3 subunit of human TRiC; CCT4 subunit of human TRiC; CCT5 subunit of human TRiC, tag knocked into the genomic locus; CCT6 subunit of human TRiC; predominantly the CCT6A isoform by MS/MS and side-chain modelling; CCT7 subunit of human TRiC; CCT8 subunit of human TRiC; Hexadecamer of two back-to-back rings of eight paralogous subunits; also …

T1 sequence (P48643 whole entry): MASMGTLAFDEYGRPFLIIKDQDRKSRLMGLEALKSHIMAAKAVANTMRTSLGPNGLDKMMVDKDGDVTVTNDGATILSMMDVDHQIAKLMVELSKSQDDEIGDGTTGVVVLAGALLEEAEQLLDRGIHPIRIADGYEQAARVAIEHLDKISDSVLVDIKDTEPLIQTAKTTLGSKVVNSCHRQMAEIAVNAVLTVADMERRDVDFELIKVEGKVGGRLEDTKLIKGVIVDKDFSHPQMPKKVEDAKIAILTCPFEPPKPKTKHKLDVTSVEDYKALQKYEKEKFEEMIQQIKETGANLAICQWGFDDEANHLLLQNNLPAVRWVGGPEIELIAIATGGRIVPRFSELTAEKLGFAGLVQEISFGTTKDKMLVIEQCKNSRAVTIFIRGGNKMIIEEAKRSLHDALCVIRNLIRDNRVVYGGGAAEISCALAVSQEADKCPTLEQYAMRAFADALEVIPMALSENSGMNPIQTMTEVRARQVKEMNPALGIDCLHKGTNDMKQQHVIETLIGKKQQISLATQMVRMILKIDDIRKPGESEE
T2 sequence (P50991 whole entry): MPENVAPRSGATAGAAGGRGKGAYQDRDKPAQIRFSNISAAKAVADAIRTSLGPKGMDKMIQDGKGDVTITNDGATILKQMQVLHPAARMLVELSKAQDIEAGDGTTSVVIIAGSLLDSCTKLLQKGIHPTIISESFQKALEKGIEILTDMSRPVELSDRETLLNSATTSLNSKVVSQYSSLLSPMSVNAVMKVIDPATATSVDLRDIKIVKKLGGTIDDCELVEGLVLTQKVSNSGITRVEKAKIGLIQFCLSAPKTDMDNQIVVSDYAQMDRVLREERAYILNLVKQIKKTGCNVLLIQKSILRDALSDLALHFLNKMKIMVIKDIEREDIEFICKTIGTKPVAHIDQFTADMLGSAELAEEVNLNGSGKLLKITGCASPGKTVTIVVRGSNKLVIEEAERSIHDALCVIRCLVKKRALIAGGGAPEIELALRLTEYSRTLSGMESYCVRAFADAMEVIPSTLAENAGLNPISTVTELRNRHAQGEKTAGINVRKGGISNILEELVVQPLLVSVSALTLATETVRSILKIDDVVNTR

B1: nanobody Nb18 (VHH)
VHH: QVQLVESGGGLVQAGGSLRLSCGASGTFFRINDMGWYRQASGKQRELVASITRGGTTDYADSVKGRFTISRDNAKNTVYLQMNSLKPEDTAVYYCKANRNWGREWDDYWGQGTQVTVSS
notes: Nb18 is modelled in the TRiC–Nb18 structure solved here (PDB 7NVL); llama nanobody raised against CCT5 homo-hexadecamer, in vector pMESy4; Starting model was a homology model on PDB 6QX4 chain C (another nanobody); also called CA14679; source: E. coli, purified (Ni-NTA, SEC)
Kd [1]: 86 nM
binding result (recombinant CCT4): no binding (tested: Nb18 40 μM to 39 nM (methods))
stoichiometry N [2]: 2
